This note sets out measurements from US20240327522A1 (Genentech, published 2024).

One assay addresses T1, human αvβ1 (human, UniProt P06756 31-992; P05556 21-728).
T1 construct: Counter-screen integrin; construct not described; also called hu.aVb1; αVP1
As to the kind of experiment: SPR binding assay, sample hu.aVb1,3,5,6. For orientation: In SPR one partner is held on a chip, and binding of the other changes the refractive index at the surface.

Another assay addresses T2, human αvβ3 (human, UniProt P06756 31-992; P05106 27-718).
T2 construct: Counter-screen integrin; construct not described; also called hu.aVb3; αV03
As to the kind of experiment: SPR binding assay, sample hu.aVb1,3,5,6.

The next assay deals with T3, human αvβ5 (human, UniProt P06756 31-992; P18084 24-719).
T3 construct: Counter-screen integrin; construct not described; also called hu.aVb5; αV05
T3 sequence (P18084 24-719 limits assumed, one chain of several): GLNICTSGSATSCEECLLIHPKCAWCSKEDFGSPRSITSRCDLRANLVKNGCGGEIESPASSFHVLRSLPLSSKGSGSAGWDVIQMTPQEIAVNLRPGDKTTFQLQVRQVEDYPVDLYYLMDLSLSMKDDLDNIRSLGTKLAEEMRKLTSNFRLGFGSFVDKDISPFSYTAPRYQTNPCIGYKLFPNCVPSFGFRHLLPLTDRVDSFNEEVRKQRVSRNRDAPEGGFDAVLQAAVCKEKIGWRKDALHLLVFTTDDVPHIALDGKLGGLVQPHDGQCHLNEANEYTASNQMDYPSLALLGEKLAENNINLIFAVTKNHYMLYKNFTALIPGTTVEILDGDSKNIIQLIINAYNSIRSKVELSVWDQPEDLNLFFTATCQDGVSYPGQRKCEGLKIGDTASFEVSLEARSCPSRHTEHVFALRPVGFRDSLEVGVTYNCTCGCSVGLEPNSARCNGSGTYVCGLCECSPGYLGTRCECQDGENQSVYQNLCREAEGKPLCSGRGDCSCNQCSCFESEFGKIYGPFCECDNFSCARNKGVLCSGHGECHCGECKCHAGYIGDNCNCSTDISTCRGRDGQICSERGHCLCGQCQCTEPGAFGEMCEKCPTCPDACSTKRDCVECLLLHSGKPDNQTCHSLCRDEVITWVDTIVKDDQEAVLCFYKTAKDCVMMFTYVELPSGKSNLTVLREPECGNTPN
As to the kind of experiment: SPR binding assay, sample hu.aVb1,3,5,6.

The next assay addresses T4, human αvβ6 (human, UniProt P06756 31-992; P18564 22-709).
T4 construct: Counter-screen integrin; construct not described; also called hu.aVb6; αV06
Description: SPR binding assay, sample hu.aVb1,3,5,6.

The target in assay [1] is T5, recombinant human αvβ8 protein (PARS-17102) (human).
T5 construct: also called hu.aVb8.17102; not shown: C-terminal acid/basic coils and any purification tags
T5 alpha: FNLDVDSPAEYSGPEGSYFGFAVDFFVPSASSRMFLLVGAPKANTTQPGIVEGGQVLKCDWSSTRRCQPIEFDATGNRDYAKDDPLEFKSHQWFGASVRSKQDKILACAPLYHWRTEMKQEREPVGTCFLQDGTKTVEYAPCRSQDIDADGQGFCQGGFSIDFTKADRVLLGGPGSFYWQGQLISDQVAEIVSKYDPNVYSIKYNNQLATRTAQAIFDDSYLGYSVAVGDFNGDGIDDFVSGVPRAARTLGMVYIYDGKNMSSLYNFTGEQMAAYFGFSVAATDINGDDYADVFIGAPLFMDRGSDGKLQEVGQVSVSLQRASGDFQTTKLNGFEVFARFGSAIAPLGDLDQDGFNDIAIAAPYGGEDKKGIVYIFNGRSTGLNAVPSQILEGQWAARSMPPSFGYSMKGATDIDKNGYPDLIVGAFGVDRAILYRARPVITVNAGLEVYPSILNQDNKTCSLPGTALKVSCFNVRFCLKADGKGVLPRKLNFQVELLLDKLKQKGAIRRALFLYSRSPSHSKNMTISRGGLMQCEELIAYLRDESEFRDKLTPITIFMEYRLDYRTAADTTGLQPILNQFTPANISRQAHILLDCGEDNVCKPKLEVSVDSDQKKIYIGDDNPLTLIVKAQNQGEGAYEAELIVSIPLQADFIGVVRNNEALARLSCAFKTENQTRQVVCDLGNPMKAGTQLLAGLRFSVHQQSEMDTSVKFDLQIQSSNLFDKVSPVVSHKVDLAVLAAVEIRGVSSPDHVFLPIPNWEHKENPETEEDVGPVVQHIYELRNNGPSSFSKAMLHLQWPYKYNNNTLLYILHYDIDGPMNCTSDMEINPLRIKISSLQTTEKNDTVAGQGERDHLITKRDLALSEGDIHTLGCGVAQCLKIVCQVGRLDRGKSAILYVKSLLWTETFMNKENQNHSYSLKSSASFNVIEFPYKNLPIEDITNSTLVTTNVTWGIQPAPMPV
T5 beta: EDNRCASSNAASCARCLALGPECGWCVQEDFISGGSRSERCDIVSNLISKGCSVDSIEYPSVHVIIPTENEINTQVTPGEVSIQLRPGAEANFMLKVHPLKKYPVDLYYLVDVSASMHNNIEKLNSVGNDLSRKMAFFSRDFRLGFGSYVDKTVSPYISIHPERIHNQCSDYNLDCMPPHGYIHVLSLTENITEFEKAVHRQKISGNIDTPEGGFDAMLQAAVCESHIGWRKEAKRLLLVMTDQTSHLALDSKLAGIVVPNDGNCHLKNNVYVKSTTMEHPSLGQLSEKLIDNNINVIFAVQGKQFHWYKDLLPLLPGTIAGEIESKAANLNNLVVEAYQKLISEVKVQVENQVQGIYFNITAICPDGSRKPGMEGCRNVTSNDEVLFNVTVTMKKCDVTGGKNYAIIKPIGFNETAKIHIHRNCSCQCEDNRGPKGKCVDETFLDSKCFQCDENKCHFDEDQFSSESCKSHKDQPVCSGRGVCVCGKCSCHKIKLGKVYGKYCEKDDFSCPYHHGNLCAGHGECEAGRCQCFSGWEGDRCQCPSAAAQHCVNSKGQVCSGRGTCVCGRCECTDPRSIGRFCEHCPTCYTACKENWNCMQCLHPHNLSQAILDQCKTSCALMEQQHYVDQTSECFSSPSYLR
Description: SPR binding assay, experiment 1, antibody as ligand, aVb8 as sample.

For assay [2], the target named is T6, recombinant mouse αvβ8 protein (PARS-17103) (murine, UniProt P43406 31-988; Q0VBD0 43-681, limits assumed).
T6 construct: Made in house; also called mu.aVb8.17103
T6 sequence (P43406 31-988 limits assumed, chain 1 of 2): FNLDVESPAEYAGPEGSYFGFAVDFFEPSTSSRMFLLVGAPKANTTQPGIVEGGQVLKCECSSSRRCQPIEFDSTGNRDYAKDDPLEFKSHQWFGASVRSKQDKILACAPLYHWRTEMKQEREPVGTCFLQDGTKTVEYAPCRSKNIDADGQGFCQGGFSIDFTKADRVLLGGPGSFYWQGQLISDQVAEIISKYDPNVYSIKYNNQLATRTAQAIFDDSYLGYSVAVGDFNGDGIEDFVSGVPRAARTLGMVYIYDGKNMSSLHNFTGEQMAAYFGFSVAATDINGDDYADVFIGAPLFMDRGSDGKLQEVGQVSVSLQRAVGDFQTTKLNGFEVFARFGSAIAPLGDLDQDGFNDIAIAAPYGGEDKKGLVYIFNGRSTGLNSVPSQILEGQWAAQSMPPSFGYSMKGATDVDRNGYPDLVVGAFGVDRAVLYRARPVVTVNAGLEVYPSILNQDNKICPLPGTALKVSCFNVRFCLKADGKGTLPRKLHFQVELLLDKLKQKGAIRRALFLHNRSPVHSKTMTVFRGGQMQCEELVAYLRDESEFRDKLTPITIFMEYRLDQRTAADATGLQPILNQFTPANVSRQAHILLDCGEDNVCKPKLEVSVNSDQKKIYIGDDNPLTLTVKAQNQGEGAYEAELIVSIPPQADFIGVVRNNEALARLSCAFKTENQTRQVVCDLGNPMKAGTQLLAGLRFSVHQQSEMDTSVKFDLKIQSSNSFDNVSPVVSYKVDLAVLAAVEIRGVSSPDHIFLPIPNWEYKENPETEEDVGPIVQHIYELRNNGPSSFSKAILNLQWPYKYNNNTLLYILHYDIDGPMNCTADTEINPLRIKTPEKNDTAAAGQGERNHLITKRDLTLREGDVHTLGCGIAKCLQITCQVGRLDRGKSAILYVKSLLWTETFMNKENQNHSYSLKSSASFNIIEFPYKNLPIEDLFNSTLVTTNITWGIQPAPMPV
T6 sequence (Q0VBD0 43-681 limits assumed, chain 2 of 2): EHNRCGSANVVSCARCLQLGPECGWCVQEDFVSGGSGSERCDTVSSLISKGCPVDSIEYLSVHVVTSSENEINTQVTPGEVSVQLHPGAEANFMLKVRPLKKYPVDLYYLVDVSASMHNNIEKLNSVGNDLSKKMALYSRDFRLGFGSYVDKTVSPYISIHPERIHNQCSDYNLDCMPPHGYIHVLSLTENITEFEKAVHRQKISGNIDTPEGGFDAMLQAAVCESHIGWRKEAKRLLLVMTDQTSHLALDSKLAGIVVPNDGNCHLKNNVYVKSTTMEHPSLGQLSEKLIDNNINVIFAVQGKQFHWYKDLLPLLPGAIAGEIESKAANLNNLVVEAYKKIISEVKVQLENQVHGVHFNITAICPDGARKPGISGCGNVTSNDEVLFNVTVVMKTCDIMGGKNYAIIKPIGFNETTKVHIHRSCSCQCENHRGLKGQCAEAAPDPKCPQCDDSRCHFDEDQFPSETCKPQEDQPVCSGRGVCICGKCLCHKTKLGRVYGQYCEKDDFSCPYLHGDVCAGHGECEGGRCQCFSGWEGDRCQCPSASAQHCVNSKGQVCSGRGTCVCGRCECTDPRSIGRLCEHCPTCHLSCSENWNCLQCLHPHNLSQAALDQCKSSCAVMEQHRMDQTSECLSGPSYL
The description is as above.

Assay [3] concerns the target T7, recombinant cynomolgus monkey αvβ8 protein (PARS-19393) (cynomolgus monkey, UniProt A0A2K5WCD3 31-992; G7P0S0 43-684).
T7 construct: also called cyno.aVb8-19393; cyno.aVb8
The assay is described as above.

T4 sequence (P18564 22-709 limits assumed, one chain of several): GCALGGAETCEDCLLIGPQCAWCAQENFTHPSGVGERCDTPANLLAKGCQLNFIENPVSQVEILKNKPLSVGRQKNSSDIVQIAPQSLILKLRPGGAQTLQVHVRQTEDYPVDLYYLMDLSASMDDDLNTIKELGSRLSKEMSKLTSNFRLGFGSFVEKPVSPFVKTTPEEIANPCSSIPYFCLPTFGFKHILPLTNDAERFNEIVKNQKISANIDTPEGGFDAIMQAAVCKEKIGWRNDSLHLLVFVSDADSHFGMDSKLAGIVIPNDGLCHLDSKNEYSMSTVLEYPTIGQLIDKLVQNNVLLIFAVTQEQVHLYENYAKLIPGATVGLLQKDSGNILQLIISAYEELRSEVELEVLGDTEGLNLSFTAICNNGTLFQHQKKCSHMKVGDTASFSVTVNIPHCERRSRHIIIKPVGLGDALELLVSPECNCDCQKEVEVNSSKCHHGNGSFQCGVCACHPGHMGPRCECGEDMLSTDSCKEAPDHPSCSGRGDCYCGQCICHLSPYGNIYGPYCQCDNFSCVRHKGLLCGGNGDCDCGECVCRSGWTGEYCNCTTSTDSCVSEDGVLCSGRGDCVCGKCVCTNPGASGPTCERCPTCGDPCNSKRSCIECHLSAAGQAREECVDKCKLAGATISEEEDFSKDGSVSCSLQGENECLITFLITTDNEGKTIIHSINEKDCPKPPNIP
T1 sequence (P05556 21-728 limits assumed, one chain of several): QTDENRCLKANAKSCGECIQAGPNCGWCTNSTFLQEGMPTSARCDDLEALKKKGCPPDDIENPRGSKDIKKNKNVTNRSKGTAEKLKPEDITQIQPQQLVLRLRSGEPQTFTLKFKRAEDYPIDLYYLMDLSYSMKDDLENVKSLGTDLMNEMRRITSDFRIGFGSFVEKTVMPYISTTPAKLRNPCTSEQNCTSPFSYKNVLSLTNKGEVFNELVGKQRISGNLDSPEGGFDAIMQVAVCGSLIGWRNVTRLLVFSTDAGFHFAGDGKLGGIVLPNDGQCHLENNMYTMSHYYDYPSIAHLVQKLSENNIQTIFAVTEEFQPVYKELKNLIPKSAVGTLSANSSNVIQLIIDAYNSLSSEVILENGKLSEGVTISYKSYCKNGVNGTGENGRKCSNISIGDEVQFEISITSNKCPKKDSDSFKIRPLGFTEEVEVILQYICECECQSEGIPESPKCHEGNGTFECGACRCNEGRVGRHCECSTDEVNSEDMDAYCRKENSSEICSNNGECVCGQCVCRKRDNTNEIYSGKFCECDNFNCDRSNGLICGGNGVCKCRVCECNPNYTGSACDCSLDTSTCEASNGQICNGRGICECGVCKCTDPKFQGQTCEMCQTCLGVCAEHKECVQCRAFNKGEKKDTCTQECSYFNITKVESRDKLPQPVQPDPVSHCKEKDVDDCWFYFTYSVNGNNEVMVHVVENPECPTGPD
T2 sequence (P05106 27-718 limits assumed, chain 2 of 2, one chain of several): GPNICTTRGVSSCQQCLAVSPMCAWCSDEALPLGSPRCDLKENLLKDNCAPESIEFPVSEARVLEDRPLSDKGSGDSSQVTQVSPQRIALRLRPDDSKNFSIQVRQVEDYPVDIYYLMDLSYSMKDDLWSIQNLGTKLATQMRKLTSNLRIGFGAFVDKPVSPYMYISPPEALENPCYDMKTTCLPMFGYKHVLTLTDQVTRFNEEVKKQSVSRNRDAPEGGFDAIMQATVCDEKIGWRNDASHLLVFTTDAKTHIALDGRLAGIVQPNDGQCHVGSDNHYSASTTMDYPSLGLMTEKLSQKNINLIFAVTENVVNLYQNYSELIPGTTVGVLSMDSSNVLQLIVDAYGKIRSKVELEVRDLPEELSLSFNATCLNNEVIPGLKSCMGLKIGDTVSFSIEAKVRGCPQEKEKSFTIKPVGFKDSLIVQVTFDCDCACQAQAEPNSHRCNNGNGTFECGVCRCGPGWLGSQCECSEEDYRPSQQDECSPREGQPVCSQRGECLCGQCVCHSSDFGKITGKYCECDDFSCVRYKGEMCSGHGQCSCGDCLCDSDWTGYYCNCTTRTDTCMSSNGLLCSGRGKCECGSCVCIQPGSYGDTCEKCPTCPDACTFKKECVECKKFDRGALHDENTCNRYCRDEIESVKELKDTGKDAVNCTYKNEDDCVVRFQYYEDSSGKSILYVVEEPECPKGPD

B1: Hu.aVb8-65.H15L2 (aVb8-65.H15L2.hIgG1.LALAPG) (antibody, V domains shown)
VH: EVQLLESGGGLVQPGGSLRLSCAASGIDLSNYAMIWVRQAPGKGLEWVGIISSSDRIWYASWVKGRFTISRDNSKNTLYLQMNSLRAEDTAVYYCSRSVSNSYFDGWNLWGQGTLVTVSS
VL: DIQMTQSPSSVSASVGDRVTITCQASENINSLLAWYQQKPGKAPKLLIYRASTLASGVPSRFSGSGSGTDFTLTISSLQPEDFATYYCQSNYGFTGSGAFFYGFGQGTKVEIKR
notes: Human IgG1 LALAPG; also called PARS-20475-65 (IH) aVb8-65.H15L2.hIgG1.LALAPG; humanized αvβ8-65
As to B1, the binding result with human αvβ1, with human αvβ3, with human αvβ5 and with human αvβ6 was “no binding” each time. The equilibrium dissociation constant (Kd) in assay [1] amounted to 0.384 nM; in assay [2], 0.906 nM; in assay [3], 0.48 nM. Also, the off-rate (koff) in assay [1] stood at 0.000208 s⁻¹; in assay [2], 0.000155 s⁻¹; in assay [3], 0.000164 s⁻¹. The results for the kon in assay [1], in assay [2] and in assay [3] were 540000 M⁻¹ s⁻¹, 171000 M⁻¹ s⁻¹ and 341000 M⁻¹ s⁻¹, respectively.

In general, Kd refers to the constant that tells how readily two partners part at equilibrium. In general, koff refers to the first-order rate constant of dissociation. A word on the kon: it is a measure of how fast the partners come together.
